Measurements reported in paper PMC8391708, “Anti-Inflammatory Effects of C1q/Tumor Necrosis Factor-Related Protein 3 (CTRP3) in Endothelial Cells” (Cells, 2021).

Molecular target: the molecule itself
Experiment: SDS-PAGE; recombinant CTRP3 run on SDS-polyacrylamide gels, stained with Coomassie; band at <100 kDa read as a trimer

B1: C1q/TNF-related protein 3 (CTRP3), recombinant (natural protein, human, UniProt Q9BXJ4 23-246, looked up)
chain: QDEYMESPQTGGLPPDCSKCCHGDYSFRGYQGPPGPPGPPGIPGNHGNNGNNGATGHEGAKGEKGDKGDLGPRGERGQHGPKGEKGYPGIPPELQIAFMASLATHFSNQNSGIIFSSVETNIGNFFDVMTGRFGAPVSGVYFFTFSMMKHEDVEEVYVYLMHNGNTVFSMYSYEMKGKSDTSSNHAVLKLAKGDEVWLRMGNGALHGDHQRFSTFAGFLLFETK
notes: C1q/TNF-related protein 3 (CTRP3), human, recombinant; also called C1q/Tumor Necrosis Factor-Related Protein 3; recombinant human CTRP3; source: baculovirus expression system in insect H5 cells
For B1, which “stoichiometry N” value is on record?
The value was 3.
